Laboratory results taken from patent US20220387417A1, “Pharmaceutical Combination and Use Thereof” (CSTONE PHARMACEUTICALS (SUZHOU) CO., LTD., priority 2019, published 2022).

Tests used:
[1] = test system: subcutaneous MC38-hPD-L1 transplanted tumor; experiment: Antibody 2E5 monotherapy or in combination with Lenvatinib mesylate on B-hPD-1 humanized mouse MC38-hPD-L1 colon cancer model: tumor volume, tumor weight, TGI, synergy score; type: in vivo; settings: for Tumor volume (mm^3)/Mean ± SEM Day 17: 17th day after the start of treatment
Description: Synergy score was calculated using the following formula described in Clarke R. Issues in experimental design and endpoint analysis in the study of experimental cytotoxic agents in vivo in breast cancer and other models[J]. Breast Cancer Research & Treatment, 1997, 46(2-3):255-278, which is incorporated by reference in its entirety:
Synergy score=((A/C)×(B/C))/(AB/C);
where A is RTV value of drug A; B is RTV value of drug B; C is RTV value of vehicle control; AB is RTV value of combination treatment with A and B respectively. • Synergy score>1 represents synergistic; • Synergy score=1 represents additive; • Synergy score<1 represents antagonistic.
where V0 and Vt are the average tumor volume at the start of treatment (day 0) and the average tumor volume on a certain time point (day t).
Mouse colon cancer cells MC38 were purchased from Shun Ran (Shanghai) Biotechnology Co., Ltd., and the cells were cultured in a 37° C., 5% CO2 incubator supplemented with Dulbecco's Modified Eagle's medium containing 10% inactivated fetal bovine serum. MC38 cells were genetically modified to overexpress human PD-L1 and knock out murine PD-L1, the modified cells were named as MC38-hPD-L1 cells.
(§1) MC38-hPD-L1 tumor cells were resuspended in 1×PBS to a concentration of 5×10^5 cells per 0.1 mL. Each of the B-hPD-1 humanized mice was subcutaneously inoculated at the right lateral thorax region with 0.1 mL of the cell suspension. When the average tumor volume reached about 77 mm^3, the mice with moderate tumor volume were selected and randomly divided into 6 groups according to tumor volume, with 10 mice in each group, and the treatment was initiated on the same day.
Tumor volume was measured 2-3 times a week in two dimensions using a caliper, and the volume was expressed in mm^3 using the formula: V=0.5 a×b^2 where a and b were the long and short diameters of the tumor, respectively.
At the termination of the experiment, the animals were photographed to record the tumor bearing state after euthanasia, and the tumors of the mice were weighed and photographed.
TGITV(%)=[1−(Ti−T0)/(Vi−V0)]×100%.
Ti: tumor volume of the treatment group at day i following treatment; T0: tumor volume of the treatment group at day 0 following treatment; Vi: tumor volume of the control group at day i following treatment; V0: tumor volume of the control group at day 0 following treatment.
At the termination of the experiment, the animals were euthanized, the tumors were separated and weighed, and the difference of tumor weight between each group was calculated. Tumor weight inhibition (TGITW) was calculated by the formula:
TGITW (%)=(WC−WT)/[…]×100%; where We means tumor weight of control group, WT means tumor weight of treatment group.
(§2) The original data measured and observed must be recorded. The original data was analyzed and the results were expressed by mean and standard error (Mean±SEM). The data of body weight, tumor volume and tumor weight was statistically analyzed using independent-samples t-test. All data were analyzed using SPSS, P<0.05 is considered to be statistically significant.

[2] = Body weight of B-hPD-1 humanized mice bearing MC38-hPD-L1 tumors, Embodiment 2 (antibody 2E5 / Lenvatinib mesylate); type: in vivo, Mus musculus; settings: for Weight (g)/Mean ± SEM Day 17: 17th day after the start of treatment; for Weight (g) Changes: Day 17 vs Day 0
Description: as §1
Animals were weighed 2-3 times a week before tumor inoculation, during animal grouping and the treatment, and before the euthanasia.
as §2

[3] = Antibody 2E5 1 mg/kg i.p., Lenvatinib mesylate 1 mg/kg p.o. QD (G2, G4, G5)
[4] = Antibody 2E5 2 mg/kg i.p., Lenvatinib mesylate 1 mg/kg p.o. QD (G3, G6)
[5] = Antibody 2E5 1 mg/kg, Lenvatinib mesylate 1 mg/kg (G2, G4, G5)
[6] = Antibody 2E5 2 mg/kg, Lenvatinib mesylate 1 mg/kg (G3, G6)

B1: Antibody 2E5: anti-PD-1 antibody (antibody N), heavy chain variable SEQ ID NO: 30, light chain variable SEQ ID NO: 31, human IgG4 constant region (antibody, V domains shown)
VH: QVQLVQSGAEVKKPGSSVKVSCKASGFTFTTYYISWVRQAPGQGLEYLGYINMGSGGTNYNEKFKGRVTITADKSTSTAYMELSSLRSEDTAVYYCAIIGYFDYWGQGTMVTVSS
VL: DVVMTQSPLSLPVTLGQPASISCRSSQSLLDSDGGTYLYWFQQRPGQSPRRLIYLVSTLGSGVPDRFSGSGSGTDFTLKISRVEAEDVGVYYCMQLTHWPYTFGQGTKLEIK
modifications: human IgG4 constant region; heavy chain variable region; light chain variable region
With B1 the “Tumor volume (mm^3)/Mean ± SEM Day 17” value [1, 3] was 1195 ± 252 mm^3, the “Tumor volume (mm^3)/Mean ± SEM Day 17” value [1, 4] was 1302 ± 202 mm^3 and the “Tumor volume (mm^3)/Mean ± SEM Day 0” value [1, 5] was 77 ± 2 mm^3. For the same molecule, the “Tumor volume (mm^3)/Mean ± SEM Day 0” value [1, 6] was 77 ± 2 mm^3, the “Tumor weight (g) Mean ± SEM” value ([1]; Day 17, Antibody 2E5 1 mg/kg, Lenvatinib mesylate 1 mg/kg (G2, G4, G5)) was 0.909 ± 0.186 g and the “Tumor weight (g) Mean ± SEM” value ([1]; Day 17, Antibody 2E5 2 mg/kg, Lenvatinib mesylate 1 mg/kg (G3, G6)) was 1.080 ± 0.190 g. The “Tumor growth inhibition (%)” value ([1]; by tumor volume, Day 17, vs hIgG4 control, Antibody 2E5 1 mg/kg, Lenvatinib mesylate 1 mg/kg (G2, G4, G5)) was 56.4%, the “Tumor growth inhibition (%)” value ([1]; by tumor volume, Day 17, vs hIgG4 control, Antibody 2E5 2 mg/kg, Lenvatinib mesylate 1 mg/kg (G3, G6)) was 52.2% and the “Tumor growth inhibition (%)” value ([1]; tumor weight analysis (Table 21), Day 17, vs IgG4 control, Antibody 2E5 1 mg/kg, Lenvatinib mesylate 1 mg/kg (G2, G4, G5)) was 56.4%. For the same molecule, the “Tumor growth inhibition (%)” value ([1]; tumor weight analysis (Table 21), Day 17, vs IgG4 control, Antibody 2E5 2 mg/kg, Lenvatinib mesylate 1 mg/kg (G3, G6)) was 48.2%, the “Weight (g)/Mean ± SEM Day 17” value [2, 3] was 28.6 ± 0.7 g and the “Weight (g)/Mean ± SEM Day 17” value [2, 4] was 27.8 ± 0.7 g. For the same molecule, the “Weight (g)/Mean ± SEM Day 0” value [2, 3] was 24.9 ± 0.7 g, the “Weight (g)/Mean ± SEM Day 0” value [2, 4] was 25.0 ± 0.6 g and the “Weight (g) Changes” value [2, 5] was “+3.7 g”. For the same molecule, the “Weight (g) Changes” value [2, 6] was “+2.8 g”.
